B1: Azoarcus group I ribozyme (parent)
chain: GUGCCUUGCGCCGGGAAACCACGCAAGGGAUGGUGUCAAAUUCGGCGAAACCUAAGCGCCCGCCCGGGCGUAUGGCAACGCCGAGCCAAGCUUCGGCGCCUGCGCCGAUGAAGGUGUAGAGACUAGACGGCACCCACCUAAGGCAAACGCUAUGGUGAAGGCAUAGUCCAGGGAGUGGCGAAAGUCACACAAACCGG

Variants of: B1
Experiment: reverse-splicing fitness (ratio to wild type); higher = more active; in vitro selection; Mg2+ level not given
Summary of the method: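 An in vitro group I ribozyme library with randomized positions was T7-transcribed and gel-purified. In triplicate, 10 pmol RNA in EPPS pH 7.5 was reacted with 50 pmoles of a 30-nt RNA substrate for 1 h at 37 °C across several added MgCl2 levels (1–48 mM), then stopped with EDTA. Products were reverse transcribed from a substrate-complementary primer, PCR-amplified and sequenced (HiSeq 4000). Fitness is a variant's read proportion after selection over that before, normalised to wild type.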

Row | Variant | reverse-splicing fitness
1 | C82G A111C A145G C169G U176A | 0.0207
2 | C82G A111C A145G C169G U176G | 0.00727
3 | C82G A111C A145G C169G U176C | 0.0315
4 | C82G A111C A145G C150G C169G U176C | 0.0117
5 | C82G A111C A145G C150G C169G U176G | 0.00603
6 | C82G A111C A145G C150G C169G U176A | 0.00869
7 | C82G A111C A145G C150G U176A | 0.0138
8 | C82G A111C A145G C150G U176G | 0.00754
9 | C82G A111C A145G C150G U176C | 0.0214
10 | C82G A111C A120U A145U C150A U176C | 0.00583
11 | C82G A111C A120U A145U C150A U176A | 0.00533
12 | C82G A111C A120U A145U C150A U176G | 0.00269
13 | C82G A111C A145C C150G C169U U176G | 0.0071
14 | C82G A111C A145C C150G C169U U176C | 0.0102
15 | C82G A111C A145C C150G C169U U176A | 0.00717
16 | C82G A111C A120U C150U C169A | 0.00635
17 | C82G A111C A120U C150U C169G | 0.00542
18 | C82G A111C A120U C150U C169U | 0.00568
19 | C82G A111C A145G C150G | 0.0266
20 | C82G A111C A145G C150A | 0.0364
21 | C82G A111C A145G C150U | 0.205

Row | Variant | reverse-splicing fitness
22 | C82G A111C A120U A145U C150A C169G U176G | 0.00223
23 | C82G A111C A120U A145U C150A C169G U176A | 0.00297
24 | C82G A111C A120U A145U C150A C169G U176C | 0.00248
25 | C82G A111C A145G U176G | 0.0463
26 | C82G A111C A145G U176A | 0.129
27 | C82G A111C A145G U176C | 0.147
28 | C82G A111C A145G C150A C169U U176G | 0.00863
29 | C82G A111C A145G C150A C169U U176A | 0.0153
30 | C82G A111C A145G C150A C169U U176C | 0.0161
31 | C82G A111C A120U C150G | 0.00766
32 | C82G A111C A120U C150U | 0.0243
33 | C82G A111C A120U C150A | 0.00807
34 | C82G A111C A120U A145U C169G U176G | 0.00162
35 | C82G A111C A120U A145U C169G U176A | 0.00269
36 | C82G A111C A120U A145U C169G U176C | 0.00239
37 | C82G A111C A120U C169U | 0.00571
38 | C82G A111C A120U C169G | 0.00478
39 | C82G A111C A120U C169A | 0.00474
40 | C82G A111C A145C C169U U176A | 0.018
41 | C82G A111C A145C C169U U176C | 0.016
42 | C82G A111C A145C C169U U176G | 0.00741

Row | Variant | reverse-splicing fitness
43 | C82G A111C A145U C150A C169U | 0.0112
44 | C82G A111C A145U C150A C169A | 0.00994
45 | C82G A111C A145U C150A C169G | 0.0077
46 | C82G A111C A145U C150A C169U U176C | 0.014
47 | C82G A111C A145U C150A C169U U176G | 0.00816
48 | C82G A111C A145U C150A C169U U176A | 0.0139
49 | C82G A111C A145G C150G C169A U176C | 0.0129
50 | C82G A111C A145G C150G C169A U176A | 0.0115
51 | C82G A111C A145G C150G C169A U176G | 0.00829
52 | C82G A111C A145C C150U C169G U176A | 0.0245
53 | C82G A111C A145C C150U C169G U176G | 0.00873
54 | C82G A111C A145C C150U C169G U176C | 0.0189
55 | C82G A111C A120U C150U C169U U176A | 0.00688
56 | C82G A111C A120U C150U C169U U176C | 0.00485
57 | C82G A111C A120U C150U C169U U176G | 0.0024
58 | C82G A111C A145U C150G U176C | 0.0214
59 | C82G A111C A145U C150G U176G | 0.0052
60 | C82G A111C A145U C150G U176A | 0.0124
61 | C82G A111C A145C C150U | 0.0631
62 | C82G A111C A145C C150A | 0.016
63 | C82G A111C A145C C150G | 0.0271

Row | Variant | reverse-splicing fitness
64 | C82G A111C A120U C150A C169U | 0.00505
65 | C82G A111C A120U C150A C169G | 0.0046
66 | C82G A111C A120U C150A C169A | 0.00547
67 | C82G A111C A145C C150A C169A U176G | 0.00782
68 | C82G A111C A145C C150A C169A U176A | 0.0136
69 | C82G A111C A145C C150A C169A U176C | 0.00947
70 | C82G A111C A145U C150G C169U U176A | 0.00811
71 | C82G A111C A145U C150G C169U U176G | 0.00704
72 | C82G A111C A145U C150G C169U U176C | 0.0123
73 | C82G A111C A120U C150G C169A U176C | 0.0071
74 | C82G A111C A120U C150G C169A U176A | 0.00878
75 | C82G A111C A120U C150G C169A U176G | 0.00331
76 | C82G A111C A145G C150A C169G | 0.00789
77 | C82G A111C A145G C150A C169U | 0.00998
78 | C82G A111C A145G C150A C169A | 0.00903
79 | C82G A111C A145C | 0.29
80 | C82G A111C A145U | 0.283
81 | C82G A111C A145G | 0.289
82 | C82G A111C A145U C150A C169G U176G | 0.0081
83 | C82G A111C A145U C150A C169G U176A | 0.0157
84 | C82G A111C A145U C150A C169G U176C | 0.0181

From the RNAGym collection of RNA variant scans (doi:10.1093/molbev/msab373)
